Patent publication US20100081126, “PROCESS FOR DESIGNING INHIBITORS OF INFLUENZA VIRUS STRUCTURAL PROTEIN-1” (RUTGERS, THE STATE UNIVERSITY OF NEW JERSEY, published 2010)

Biological target: NS1A(1-73), NS1 protein N-terminal dsRNA-binding domain (Influenza A virus (A/Udorn/72)?, UniProt B4URE2 SEQ:1-73)
Sequence (B4URE2 1-73): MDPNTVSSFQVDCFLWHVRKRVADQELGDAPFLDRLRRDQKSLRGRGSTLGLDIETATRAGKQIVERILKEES

B1: 16-bp dsRNA (RR) (dsRNA)
RNA 1: CCAUCCUCUACAGGCG
RNA 2: CGCCUGUAGAGGAUGG
Kd: 0.748 µM
